Measured values from patent US20060058236A1, “Endogenously-formed conjugate of albumin” (priority 2004, published 2006).

What was measured:
[1] = Pharmacokinetic profile in rats dosed intravenously with 125I-labeled lysozyme or its PEG conjugates; type: in vivo, rat; details: intravenous
Description: Lysozyme (66 mg in […] in 0.1 M sodium phosphate buffer pH 7.3) was mixed with 605 μCi of Na^125I (ICN Biomedicals, Irvine, Calif.), in Iodo-Gen® coated tube (Pierce Chemical Company, Rockford, Ill.), and allowed to react for 1 hour at room temperature with 20 min intervals mixing. The iodination reaction was stopped by removing the free ^125I on a Sephadex G-25F gel filtration column (17 mL), and collecting the ^125I-lysozyme, which was then reacted with either mPEG-DTB-NPC and mPEG-NPC, and purified by cation exchange chromatography as described above.
Male Sprague-Dawley rats (250-330 g each, 3 animals per formulation per experiment) were dosed either by intravenous (via a lateral tail vein) or by subcutaneous (dorsally above the right rear leg) with ^125I labeled lysozyme or its PEG conjugates (0.35 mL, 0.4 mg protein/mL, 4.6×10^6 cpm/mL). Blood samples (0.4 mL) were collected via the retro-orbital sinus. All injections blood collections were performed while the animals were under inhaled anesthesia (isoflurane/O2). Samples were collected on heparin into polypropylene tubes and stored on ice for no longer than one hour before being pipetted in triplicate (0.100 mL) into fresh polypropylene tubes. Blood samples were collected at the following times after dosing (no single rat had blood collected at all of the following times): 30 sec, 15 min, 30 min and 1, 2, 3, 4, 6, 8, 24, 48, 72, 96, 120 and 168 hours post-dose. Note that the last 4 time points were added for the longer subcutaneous experiments. The samples were then counted for ^125I in a Packard™ 5000 gamma counter. The cpm counts were converted to concentration according to the specific activity of the samples.

human serum albumin = human serum albumin (Homo sapiens, UniProt P02768); test: Incubation of Epo conjugates with human serum albumin, SDS-PAGE and anti-HSA immunoblot; type: in vitro ADME; details: 0.05% HSA, 21 hours at 37° C., no small molecule thiols
Description: mPEG-DTB-Epo (prepared as described above), mPEG-Epo, or Epo (0.2 mg/mL) was incubated with 0.05% human serum albumin (HSA) in 100 mM HEPES, 2 mM EDTA, pH 7.5 buffer for 21 hours at 37° C. […] The SDS-PAGE gel stained with SYPRO™ red protein stain is shown in FIG. 14A and an immunoblot probed with anti-HSA is shown in FIG. 14B.

bovine serum albumin = biological target: T1, bovine serum albumin (Bos taurus, UniProt P02769); test: Decomposition of PEG-DTB-lysozyme conjugates in 4% BSA solution, HPLC; type: in vitro ADME; details: room temperature, pH 7.4, HPLC after Q spin column
T1 construct: purchased Proliant (Ankeny, IA)
Description: (§1) Conjugates of PEG-DTB-lysozyme were prepared as described in Example 1A. The conjugates (100 μg/mL=0.066 mM) were incubated in 0.6 mM cysteine or with 4% BSA at room temperature (22-24° C.), in 10 mM phosphate buffer pH 7.4 containing 2 mM EDTA. Aliquots were taken at various time points, reactions were stopped with 20 mM iodoacetamide, and stored at 2-8° C. until analysis.
For the conjugates incubated with BSA, analysis of the samples was done by diluting the samples 1/10 in 10 mM PO4 pH 7.4, passing through Q spin columns (Vivascience) in order to trap the albumin and any of its related products, and then analyzing on the same CM column.
(§2) HPLC was performed with the following conditions: Column: TOSOH TSK CM-5PW 10 micron (7.5 mm×7.5 cm); Mobile phase: (A) 10 mM NaPO4 pH 7.4 and (B) 500 mM NaCl in 10 mM NaPO4 pH 7.4; Gradient: 5 min 100% A, 20 min 0% B to 100% B; Flow rate: 1 mL/min; Fluorescence detector: λex 295 nm, λem 360 nm (slit 30 nm); and injection volume, 100 μL.

[2] = Decomposition of PEG-DTB-lysozyme conjugates in cysteine solution, HPLC; type: in vitro ADME; details: 0.6 mM cysteine, room temperature, pH 7.4, HPLC
Description: as §1
For the conjugates incubated with cysteine, analysis of the aliquots was as done follows. The samples were diluted 1/10 in 10 mM NaPO4 pH 7.4 and analyzed on a carboxymethyl (CM) cation exchanger column.
as §2

Micrococcus luteus = Micrococcus luteus turbidity assay of active lysozyme after cleavage of the conjugate; type: biochemical
Description: A Micrococcus luteus turbidity assay was used to measure the amount of active lysozyme regenerated after cleavage of the conjugate.
At various time points, aliquots from the incubation vials were added to iodoacetamide to a final concentration of 20 mM, in order to stop the cleavage reaction. Samples were stored at 2-8° C. prior to analysis.
Micrococcus luteus stock solution was prepared at 0.3 mg/mL in 100 mM KPO4 pH 7. Lysozyme standards solutions were prepared at 1, 2, 4, 6, 8, and 10 μg/mL in PBS and a lysozyme standard curve was constructed (not shown). The samples from the cleavage reactions were diluted 1/10 in PBS. For the assay, 50 μL of standard, sample, or control were added per well to 96-well microtiter plates. To each well, 200 μL of Micrococcus luteus were added, and without delay, plates were read at 450 nm at 25° C. in a plate reader of a period of 10 min, in 30 second reading intervals.
The slopes (ΔA/min) were calculated for the first 5 minutes of the reading, and the corresponding lysozyme concentrations were extrapolated from the lysozyme standard curve.

T1 sequence (P02769 25-607): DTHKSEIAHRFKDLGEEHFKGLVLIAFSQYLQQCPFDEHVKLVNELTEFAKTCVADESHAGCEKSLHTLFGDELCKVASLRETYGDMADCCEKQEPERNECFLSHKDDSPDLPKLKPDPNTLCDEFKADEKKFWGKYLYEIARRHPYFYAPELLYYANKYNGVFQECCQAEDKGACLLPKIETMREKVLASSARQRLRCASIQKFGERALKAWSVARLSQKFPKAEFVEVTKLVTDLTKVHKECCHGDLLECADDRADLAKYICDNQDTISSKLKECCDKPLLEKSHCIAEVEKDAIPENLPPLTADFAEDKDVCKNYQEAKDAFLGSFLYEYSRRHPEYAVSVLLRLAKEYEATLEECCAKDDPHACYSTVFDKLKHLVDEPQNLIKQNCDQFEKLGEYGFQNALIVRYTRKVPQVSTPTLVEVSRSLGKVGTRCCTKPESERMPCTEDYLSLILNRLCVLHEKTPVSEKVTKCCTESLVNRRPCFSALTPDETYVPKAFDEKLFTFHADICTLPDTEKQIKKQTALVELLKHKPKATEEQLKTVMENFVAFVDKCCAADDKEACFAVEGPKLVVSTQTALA

For “lysozyme: lysozyme as a model therapeutic agent”, the “clearance from the blood stream / circulation lifetime” value ([1]; 24 hour period) was “cleared rapidly”.
For “Epo: Recombinant, human erythropoietin (EPO, EPREX)”, the “formation of albumin-Epo conjugate” value (human serum albumin) was “Neither Epo alone nor the noncleavable mPEG-Epo formed the albumin-Epo conjugate”.
For “mPEG5K-DTB-lysozyme: methoxypolyethylene glycol (5 kDa) joined to lysozyme through a methyl-dithiobenzyl urethane linkage”, the “calculated half-life of remaining conjugate upon incubation in BSA” value (bovine serum albumin) was 5 h, the “calculated half-life of remaining conjugate upon incubation in cysteine” value [2] was 0.75 h and the “active lysozyme regenerated from the cysteine cleavage” value (Micrococcus luteus; 0.6 mM cysteine, 37° C.) was 74 µg/mL. For the same substance, the “active lysozyme concentration after cleavage with BSA” value (Micrococcus luteus; 4% BSA, 37° C., after 24 hours) was “approximately 18 μg/mL”, the “active lysozyme after BSA cleavage as percent of that from cysteine cleavage” value (Micrococcus luteus; 24 hours) was 24% and the “release of lysozyme from the PEG in saline” value (Micrococcus luteus; saline at 37° C. for up to 24 hours) was “did not induce release of the lysozyme”.
With “mPEG12K-DTB-lysozyme: methoxypolyethylene glycol (12 kDa) joined to lysozyme through a methyl-dithiobenzyl urethane linkage” the “calculated half-life of remaining conjugate upon incubation in BSA” value (bovine serum albumin) was 6 h, the “AUC values, cleavable vs noncleavable conjugate” value [1] was “similar” and the “half-lives, cleavable vs noncleavable conjugate” value [1] was “similar”. The “calculated half-life of remaining conjugate upon incubation in cysteine” value [2] was 1 h.
